Data published in paper PMC4164784, “4E-BPs require non-canonical 4E-binding motifs and a lateral surface of eIF4E to repress translation” (Nature Communications, 2014).
No end group written: not given here.

B1: Thor R,G,T: Thor R81A, G82A, T83A (protein, UniProt Q9XZ56 1-117, looked up, variant R81A G82A T83A)
Eukaryotic translation …: MSASPTARQAITQALPMITRKVVISDPIQMPEVYSSTPGGTLYSTTPGGTKLIYERAFMKNLRGSPLSQTPPSNVPSCLLAAAPRTPFRKCVPVPTELIKQTKSLKIEDQEQFQLDL

Key:
[1] = molecular target: T1, Dm eIF4E (residues 69–248, WT) (Drosophila melanogaster, UniProt P48598); assay: ITC, binding to eIF4E (WT, residues 69–248); conditions: for KD: VP-ITC, 20 mM Na-phosphate (pH 7.0), 150 mM NaCl, GB1-fused peptides (C+NC 10 μM, C 50 μM, L+NC 100 μM CUP or 200 μM Thor and 4E-T, eIF4G 20 μM) into eIF4E WT 1–20 μM, one-site model, each experiment repeated twice, nb = no binding; for KD / Molar ratio / TΔS / ΔG / ΔH: 20 °C; for Molar ratio / TΔS / ΔG / ΔH: eIF4E WT (69–248), pH 7.0, nb = no binding
T1 construct: The truncated His6-eIF4E (residues 69–248) that was used in the ITC experiments; His6 (N, cleaved yes); made in house; host or cells: E. coli BL21 Star (DE3)
T1 sequence (P48598 69-248 isoform P48598-2): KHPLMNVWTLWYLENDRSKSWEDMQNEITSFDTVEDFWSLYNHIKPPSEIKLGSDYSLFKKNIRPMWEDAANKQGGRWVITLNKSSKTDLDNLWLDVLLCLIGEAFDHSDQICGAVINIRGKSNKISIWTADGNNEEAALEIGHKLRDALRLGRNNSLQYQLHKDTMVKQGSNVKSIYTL
Method: Unless indicated otherwise, all the proteins were expressed in E. coli BL21 Star (DE3) cells (Invitrogen) that were grown in LB medium overnight at 20 °C. The lysis buffers were supplemented with DNaseI (5 μg ml^−1), lysozyme (1 mg ml^−1) and protease inhibitor cocktail (Roche). The truncated His6-eIF4E (residues 69–248) that was used in the ITC experiments and in Figs 2c and 5b was purified in lysis buffer containing 50 mM HEPES (pH 7.2), 300 mM NaCl, 20 mM imidazole and 2 mM β-mercaptoethanol using Ni^2+-affinity chromatography (HisTrap HP 5 ml, GE Healthcare) and eluted with a gradient of 20–500 mM imidazole. After the cleavage of the His6-tag with HRV3C protease (homemade), the protein was further purified using a heparin column (HiTrap Heparin HP 5 ml, GE Healthcare), followed by size exclusion chromatography (Superdex 75 16/60, GE Healthcare) in 20 mM Na-phosphate (pH 7.0), 300 mM NaCl and 2 mM dithiothreitol (DTT).
For the ITC measurements and the competition assays shown in Figs 4 and 5d–g, the 4E-BP peptides corresponding to the canonical (C) motifs, the combined (C+NC) motifs or L+NC were expressed with an HRV3C cleavable N-terminal MBP-tag and a non-cleavable C-terminal GB1 domain. The cells were lysed by sonication in lysis buffer containing 50 mM HEPES (pH 7.2), 300 mM NaCl and 2 mM DTT. The proteins were purified from the cleared lysates using amylose resin (New England Biolabs) followed by the cleavage of the MBP tag with HRV3C protease overnight at 4 °C. The proteins were further purified by size exclusion chromatography (Superdex 75 16/60, GE Healthcare) in 20 mM Na-phosphate (pH 7.0), 300 mM NaCl and 2 mM DTT. For the eIF4G fragment (residues 578–650) the MBP was removed after cleavage with TEV protease through an additional anion exchange chromatography (HiTrap Q HP 5 ml, GE Healthcare) before the final gel filtration.
The ITC experiments were performed using a VP-ITC microcalorimeter (MicroCal) at 20 °C. The solution of eIF4E (residues 69–248, WT or mutant: 1–20 μM) in the calorimetric cell was titrated with tenfold concentrated solutions of GB1-stabilized peptides corresponding to 4E-BPs C+NC (10 μM), C (50 μM), L+NC (100 μM CUP, 200 μM Thor and 4E-T) or eIF4G (residues 578–650, 20 μM) that were dissolved in the same buffer (20 mM Na-phosphate (pH 7.0) and 150 mM NaCl). The titration experiments consisted of an initial injection of 2 μl followed by 28 injections of 10 μl at an interval of 240 s. Each binding experiment was repeated twice. The thermodynamic parameters were estimated using a one-site binding model (Origin version 7.0), whereby the datapoint of the first injection was removed for the analysis.
(d) minimal regions for binding to eIF4E (wild-type (WT), residues 69–248). The top panels represent the raw data (μcal sec−1) whereas the bottom panels show the integrated data (kcal mole−1 of injectant) of heat changes that were best-fitted using a one-site binding model. The thermodynamic parameters correspond to heat changes that were detected when 4E-BPs (10 µM) or eIF4G (20 µM) were injected into the calorimetric cell (1.4 mL) containing 1 µM (a,b,c) or 2 µM (d) eIF4E.
Supplementary Figure 4. Thermodynamic parameters for the interaction of eIF4E with 4E-BP peptides. (a–f) ITC profiles for the interaction of eIF4E (WT, residues 69-248) and CUP (a,d), Thor (b,e) and 4E-T (c,f) peptides containing only the canonical motifs (a–c) or the L+NC regions (d–f). The measurements were performed as described in Supplementary
Fig. 3. The solutions contained the peptides corresponding to the canonical motifs (50 µM) or the L+NC regions (100 µM for CUP and 200 µM for Thor and 4E-T). The eIF4E concentration in the calorimetric cell was 5 µM (for the C peptides), 10 µM (for CUP L+NC) and 20 µM (for Thor and 4E-T L+NC peptides).
(1 picture or pasted object on this page, not shown here)

[2] = test system: endogenous eIF4E and HA-tagged 4E-BPs in S2 cells; assay: Immunofluorescence localization in S2 cells; format: cell-based, Drosophila melanogaster; conditions: −LMB
Method: S2 cells expressing HA-tagged versions of CUP, Thor and 4E-T or the indicated mutants were treated with Leptomycin B (100 nM; Sigma) or methanol as a control for 12 h. After the LMB treatment, the cells were allowed to adhere to poly-D-lysine–coated coverslips for 15 min and were fixed with 2% paraformaldehyde for 10 min. The cells were then permeabilized with 0.1% Triton X-100 in PBS (10 min) and stained with affinity-purified monoclonal anti-HA (Covance 1:1,000) and polyclonal anti-eIF4E (1:2,000) antibodies in PBS containing 1% BSA for 1 h. Alexa Fluor 594-labeled goat anti-rabbit and 488-labeled anti-mouse antibodies (Invitrogen) were used at dilutions of 1:1,000 and 1:2,000, respectively. The cells were mounted using Fluoromount-G (Southern Biotech). The images were acquired at room temperature using a confocal microscope (TCS SP2; Leica) that was fitted with a Plan-Apochromat × 100 NA 1.40 oil immersion objective and a series of three photomultipliers (Hamamatsu Photonics) controlled with the Leica confocal software (version 2.61). The images were prepared using Photoshop (Adobe). […]
Thor) independent experiments. […] Confocal fluorescent […]
micrographs of fixed S2 cells expressing HA-4E-T and GFP-Tral. The localization of HA-4E-T was determined by indirect immunofluorescence using an anti-HA antibody. The merged pictures show the HA signal in red and the GFP-Tral signal in green. Bar: 5 μm.

[3] = molecular target: T2, eIF4E (residues 69–248), purified (Drosophila melanogaster, UniProt P48598-2 69-248); assay: ITC; VP-ITC, 20 °C; eIF4E (69–248, WT or mutant, 1–20 μM) in the cell, tenfold concentrated GB1-stabilized peptides titrated in; 20 mM Na-phosphate pH 7.0, 150 mM NaCl; one-site binding model; conditions: both partners purified
T2 construct: eIF4E, Drosophila melanogaster, residues 69–248; the methods say the tag was cleaved with HRV3C; also called truncated eIF4E; eIF4E trunc; not shown: His6, N-terminal, cleaved
T2 sequence (looked up): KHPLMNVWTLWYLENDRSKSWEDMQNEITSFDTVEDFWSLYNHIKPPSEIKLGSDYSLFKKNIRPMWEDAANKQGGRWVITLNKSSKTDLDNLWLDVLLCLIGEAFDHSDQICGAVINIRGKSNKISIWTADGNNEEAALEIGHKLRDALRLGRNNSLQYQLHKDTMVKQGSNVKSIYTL

[4] = test system: endogenous eIF4E; assay: Coimmunoprecipitation / m7GTP pull-down with endogenous eIF4E in S2 cell lysates; format: cell-based, Drosophila melanogaster; conditions: western blot
Method: The coimmunoprecipitations assays were performed as previously described. For the pull downs using m^7GTP beads, 25 μl of immobilized γ-aminophenyl-m^7GTP (C10-spacer—Jena Bioscience) beads was added to the cell lysates and the mixtures were rotated for 1 h at 4 °C. The beads were washed three times with NET buffer (50 mM Tris (pH 7.4), 150 mM NaCl, 1 mM EDTA and 0.1% Triton X-100). The bound proteins were eluted with 2 × SDS–polyacrylamide gel electrophoresis (SDS–PAGE) sample buffer and analyzed by western blotting (WB). All of the WB experiments were developed with the ECL western blotting detection system (GE Healthcare) as recommended by the manufacturer. The antibodies used in this study are listed in Supplementary Table 2.
Thor and 4E-T) or HA-eIF4G and endogenous eIF4E in S2 cell lysates. The proteins were immunoprecipitated using a polyclonal anti-eIF4E antibody (α-4E). The pre-immune (Pre-I) serum and an HA-tagged version of MBP served as negative controls. The inputs (1%) and immunoprecipitates (10%) were analyzed by western blotting using anti-HA and anti-eIF4E antibodies. (b,c) The interaction of HA-tagged full length 4E-BPs (CUP, Thor and 4E-T) and eIF4G with endogenous eIF4E was analyzed by coimmunoprecipitation using anti-HA antibodies (b) or by pull-down using m7GTP-Sepharose beads (c). HA-MBP served as a negative control. The inputs (10%) and immunoprecipitates (30%) were analyzed by western blotting using anti-HA and anti-eIF4E antibodies. (d) Western blot showing the interaction of HA-Thor (full-length either wild-type or mutants) with endogenous eIF4E in S2 cells. The proteins were immunoprecipitated using anti-HA antibodies and analyzed as described in (b,c). (e) Western blot showing the interaction of HA-4E-T (residues 1–511, wild-type or mutants) with endogenous eIF4E. The proteins were immunoprecipitated using anti-HA antibodies and analyzed as described in (b,c). The size markers (kDa) are shown to the right of each panel. Mutants are described in Supplementary Table 1.

Molecule | TΔS [1] | ΔG [1] | Kd [3] | dH [3] | stoichiometry N [3] | further results
Thor L+NC: Thor residues 64–83, linker+non-canonical | nb | nb | – | – | – | KD [1]: nb; Molar ratio [1]: nb; ΔH [1]: nb
4E-T L+NC: 4E-T residues 22–44, linker+non-canonical | nb | nb | – | – | – | KD [1]: nb; Molar ratio [1]: nb; ΔH [1]: nb
4E-T NC: 4E-T residues 31–44, non-canonical motif | – | – | – | – | – | localization of endogenous eIF4E (in words) ([2]; S2 cells overexpressing 4E-BP or mutant): the number of eIF4E-positive P-bodies was reduced; localization of the 4E-BP (in words) ([2]; S2 cells, steady-state): still localized to P-bodies
CUP L+NC: CUP residues 342–376, linker+non-canonical, C-terminal GB1 (ALMHRSKESFVMPRIATCDDIELEGRLRRMNIWRT-GB1; UniProt Q9VMA3 342-376, looked up, fragment) | -9.1 kcal/mol | -9.38 kcal/mol | – | – | – | KD of L+NC relative to C motif (in words) ([1]; eIF4E WT): comparable to that of the C motif; binding thermodynamics (in words) ([1]; eIF4E WT): enthalpically driven; interaction with eIF4E (in words) ([1]; eIF4E WT, L+NC peptides): interacted with eIF4E at detectable levels
KSYTRSRLMDIRNGMFN (domain or fragment) [CUP C peptide fused C-terminally to GB1] | – | – | 160 nM | -16.84 ± 0.04 kcal/mol | 1.01 ± 0.01 | –
ALMHRSKESFVMPRIATCDDIELEGRLRRMNIWRT (domain or fragment) [CUP L+NC peptide fused C-terminally to GB1] | – | – | 103 nM | -18.5 ± 0.2 kcal/mol | 0.98 ± 0.01 | –
TKLIYERAFMKNLR (domain or fragment) [Thor C peptide fused C-terminally to GB1] | – | – | 2260 nM | -12.1 ± 2.8 kcal/mol | 1.06 ± 0.01 | –
RYSKVDLLALRYE (domain or fragment) [4E-T C peptide fused C-terminally to GB1] | – | – | 16 nM | -18.6 ± 0.7 kcal/mol | 0.95 ± 0.01 | –
B1 | – | – | – | – | – | interaction with endogenous eIF4E (in words) [4]: ineffective
